Assay results from a protein production outcome set (Wang et al. 2014).

Experiment: label from the status in PepcDB records
For “MKKWIKIVLYSLLAILIVGSITFLSWSQFTYKPTKEALSLVDDKKDEDYIVFGEKDAKIGVIFYQGAKVEAEAYSYLGEALAKDGHFVVMPKLPLNLALFGINEVDSVIEQYPEVQKWYVAGHSMGGAMISRYAFQHEEKVDGIIFLGSYPADDFSTKSIPMLSIYGEVDALATVEKIENNKKFMSKNTTMHMIKGGNHAHFGMYGEQKGDNASLITAKAQRDETVKVIEQWLLEQ”, the protein production was “failed”. With “MKKWLLAAGLGLALATSAQAADKIAIVNMGSLFQQVAQKTGVSNTLENEFKGRASELQRMETDLQAKMKKLQSMKAGSDRTKLEKDVMAQRQTFAQKAQAFEQDRARRSNEERGKLVTRIQTAVKSVANSQDIDLVVDANAVAYNSSDVKDITADVLKQVK” the protein production was “not failed”. With “MKKWRFLGIDDSFDDRKCCVVGCVTCGGYVEGFLYTEIDIDGLDATDKLISMVRRSKFREQIKCIFLPGITLGGFNLVDIQRVYRETKIPVVVVMRRKPDMEEFDSAMRNLENYELRRKIVEVAGEIHRIGDIYIQTAGLTPSEAEKLVKASLIKGNMPEPVRISHLVASAIIHGESRGKA” the protein production was “not failed”. In the case of “MKLASGFLVLWLSLGGGLAQSDTSPDTEESYSDWGLRHLRGSFESVNSYFDSFLELLGGKNGVCQYRCRYGKAPMPRPGYKPQEPNGCGSYFLGLKVPESMDLGIPAMTKCCNQLDVCYDTCGANKYRCDAKFRWCLHSICSDLKRSLGFVSKVEAACDSLVDTVFNTVWTLGCRPFMNSQRAACICAEEEKEEL”, the protein production is reported as “failed”. For “MKLAYWMYAGPAHIGTLRVATSFKNVHAIMHAPLGDDYFNVMRSMLSRERDFTPVTTSVVDRHVLARGSQEKVVDNITRKDAEERPDLIVLTPTCTSSILQEDLENFVERAQLEAKGDVLLADVNHYRVNELQAGDRTLHQIVQYYIEKARKKGELPEGKTAKPSVNIIGISTLGFHNNHDCTELKRLMADLGIEVNAVIPEGASVHELKNLPRAWFNLVPYRELGLMTANYLEKEFGTPCIDIVPMGVVETARCIRKIQEVINAQGADVNYEDYINEQTLYVSQAAWFSRSIDCQNLTGKKAVVFGDNTHAAALTKILSREMGIHVVWAGTYCKYDADWFREQVSEYCDEVLITEDHGEIGDAIARVEPSAIFGTQMERHVGKRLDIPCGVIAAPIHVQNFPIGYKPFLGYEGTNQITDLIYNSFTLGMEDHLLEIFGGHDTKEVITKGISAGSDLSWTKDGLAELNKIPGFVRGKVKRNTEKFARDRGFKDISAEVLYAAKEAVGA”, the protein production was “failed”. For “MKLCFNEATTLENSNLKLDLELCEKHGYDYIEIRTMDKLPEYLKDHSLDDLAEYFQTHHIKPLALNALVFFNNRDEKGHNEIITEFKGMMETCKTLGVKYVVAVPLVTEQKIVKEEIKKSSVDVLTELSDIAEPYGVKIALEFVGHPQCTVNTFEQAYEIVNTVNRDNVGLVLDSFHFHAMGSNIESLKQADGKKIFIYHIDDTEDFPIGFLTDEDRVWPGQGAIDLDAHLSALKEIGFSDVVSVELFRPEYYKLTAEEAIQTAKKTTVDVVSKYFSM”, the protein production was “not failed”. With “MKLEERIKSKITILVFIAILMYFLLNYGNDVRGIINNIYSIFFPFILGGCIAFILNIPVTFFSKKLLNCKIKFIGKVVRKYNISISIVASCILIIGIFALISAIIIPNIIQTIKILPNAFDNSITAFQKFVNENSWMSKNVTSLVNNLNIDWNGILNKVKITIITGASSVFMSTLGAATTFASTAIEFVLSFIFSIYILAQKNKLGTQVKMVLYAFFKKQKVDSALEVLKLTSNTFSNFITGQCTVSIILGVMFFIVMTILKLPYAIEVSIIIAFFSVIPMIGSIIGFVLSVLLLLIFNPIKAGVFVFVFLAIKQVEDNFIYPKIVGNSVGLPSILVLVAITLGGKVLGVPGMIMSIPLFSVAYVLLRKEVYTRLEKKALKVE” the protein production was “failed”. In the case of “MKLETIDYRAADSAKRFVESLRETGFGVLSNHPIDKELVERIYTEWQAFFNSEAKNEFMFNRETHDGFFPASISETAKGHTVKDIKEYYHVYPWGRIPDSLRANILAYYEKANTLASELLEWIETYSPDEIKAKFSIPLPEMIANSHKTLLRILHYPPMTGDEEMGAIRAAAHEDINLITVLPTANEPGLQVKAKDGSWLDVPSDFGNIIINIGDMLQEASDGYFPSTSHRVINPEGTDKTKSRISLPLFLHPHPSVVLSERYTADSYLMERLRELGVL”, the protein production is reported as “not failed”. With “MKLHTSDLLIICAYLIAMIVIGLILKKRAAQNMDSYFLGGKSLPFYMLGLSNASGMFDITGTMLMVYWAFAYGFKSLWIPWLWPVFNQIFLMVYLSVWLRRSNVLTGAEWIKTRFGKGKGATLSHTIVVVFALLSVLGFLSYGFIGIGKFMEIFIPWEVISPYIPFTVSPEYVPHVYGIFFTAIATFYVMLGGMLSIVWTDVVQFLIMTVAGIVIVVIGMQMVAPDMIHSFVPAGWDSPFFGWTLDIDWSSRMSLLTERMANEPYSLIGIFVMMALLKGIFMSMAGPAPNYDMQKILSCKSPKEAAMMSGSVSVVLLIPRYLMIMGFALLAIYFFKEDGGLTQMEVTRTDFETILPHLITRYVPAGFAGLLLAGLLAAFMSTFASTVNAAPAYIVNDIYLKYINPKASVKTQIRSSYVISVAVVVVSTVIGFFLKDINEIFQWIVGALFGGYIAANVLKWHWWRFNGEGYFWGMTAGVVAAIVMKFTVPDAWVLYFFPVLFGVSLIGCIIGTYSAPATDEETLINFYVNVRPWGCWKPIQEKAIARYPHIQANKNFKRDAFNVAIGIIWQCTLTIIPMYLVVREQLGLWSSIALLLITTLILRKTWYKPLCKEEARYNEEMKQIR” the protein production was “failed”. For “MKLIAIDLDGTLLNSKHQVSLENENALRQAQRDGIEVVVSTGRAHFDVMSIFEPLGIKTWVISANGAVIHDPEGRLYHHETIDKKRAYDILSWLESENYYYEVFTGSAIYTPQNGRELLDVELDRFRSANPEADLSVLKQAAEVQYSQSGFAYINSFQELFEADEPIDFYNILGFSFFKEKLEAGWKRYEHAEDLTLVSSAEHNFELSSRKASKGQALKRLAKQLNIPLEETAAVGDSLNDKSMLEAAGKGVAMGNAREDIKSIADAVTLTNDEHGVAHMMKHLL”, the protein production was “not failed”. For “MKLKGVDNKILSNIFSLLSVQGALYIIPLITLPYLVRTLGVENYGVFGFSLAIVSYMSLIVDYGFNITATKTGAEIRYDKNKLSKLFFEILYSKLFMFIICSLSSILFSFFVENNIFNKDIIFVLMFTVFSQVIFPIWFFQAIEELKLVATLNFISKSLSVPLIFILINDEKDLIKLAVIHAITTIIPAIYSVYYIHIRKLVFFYKPSLNSIVSQIKNGWHIFLSGISISFYSTIVTVFLGIFSGATETGYFVAADRLRKAVQGISGPISQSFYPRINSLINTNKKSAINLIKVLYKIQFIVTFILSSLLFIFSEEIVEVLYGNGFVQSIVILKVLSYVPFFVSMSNASGICVIVSFGFNRLFSKIMMFSGGVGVALSFLLINSYGAIGSGLSILISEFIIAIIMIYFVIKLKLLKQ”, the protein production was “failed”. For “MKLKNILIVVDNIEESIHFYNELFGLNVISRQEGNVIMSEGLVLQDAGIWKESMQIQTIPYNNMTELYFEDNDIEGVVKKLESGRYEVRYATALTELDGGQKLVRFYDQSGNLIEVRTPWDKFVNRE”, the protein production was “failed”. In the case of “MKLKWWQRLLPRSAFSQTVLLIGCLLLINQLVSYVTVAVYVLKPSYQQINQLIARQINLLFVDGIDIGREHLTIVDALNAKVRDDGMKVYNQQQAREAGIEQATYYGFWSSQMTEYLGGDAEVRVTHGRVLQVWIRPPQAPSVWIKVPLIGQNVSDLSPLTLYLMVIGALSVAGGWWFARQQNRPLRRLQKAAISVSRGEFPDPLPLKGSSELVEVTNAFNQMAHSMKQLEQDRALLMAGISHDLRTPLTRIRLASEMMVEDDQYLKDGIVNDIEDMDAIISQFIAYIRQDQEASREPGQINKLIQDIAQAEANRDGEIELALADCPEALFQGLAIKRVLSNLVENAFRYGSGWVRISSQFDGKRIGFSVEDNGPGIDESQIPTLFQPFTQGDIARGSVGSGLGLAIIKRIIDRHQGQITLSNRAAGGLKAQVWLPRE”, the protein production is reported as “failed”. For “MKLLIISDGHGDLEKLKKIKPVADGVDALIFGGDFAAFKKIETGAPFLNELLKIHKNIFAVLGNCDEPEFEKKLKDASVSITGEVKNFEGLIFAGSGGGSKFTGTTPYERTDEELVKDLTDAFEKANITAAGNLVLVCHNPPHGAKVDKVAPMVHVGSKGITAFIEKHKPLLVVSGHIHESFAVDKIGETVLVNPGALMEGRYALAEITKNEKGFKVSVELKTLD”, the protein production was “failed”. With “MKLPRFGVEEWLNVHENSAIYDIAGVSISSLTLEELFALSGTNPEDFYKKLQGTKLNYGWIEGSPAFKKSVSQLYTGVKPEQILQTNGATGANLLVLYSLIEPGDHVISLYPTYQQLYDIPKSLGAEVDLWQIEEENGWLPDLEKLRQLIRPTTKMICINNANNPTGAVMDRTYLEELVEIASEVGAYILSDEVYRSFSELDVPSIIEVYDKGIAVNSLSKTYSLPGIRIGWVAANHQVTDILRDYRDYTMICAGVFDDLVAQLALAHYQEILERNRHILEENLAILDQWIEEEPLVSYIRPAVVSTSFVKIAVDMPMEDFCLQLLQEHGVLLVPGNRFERDGYVRLGFACEQETLIKGLEKLSQFLRRFDKEN” the protein production was “not failed”. For “MKLPRLWPTALSLLCSLALAQAPASPGTTAQGPAPAAVAGLAALPGGTRLVCAGTSLWTLSTSAAPQRLPLPEDCQGLRVSPSGKVVLVSGRASVTVWRLDAEQQSDGQLWRRVALPEPARRVAFLNDSTLLLAGARGLEQLDLNTQARTLLRPGAVTGLATAPDGRRAVMGDGSRVQLVNVADGAVLSGVRCEVACPLQDVQFSRDQRGAVVQAGPVLYALREGHPATAVLRGAEGAMGFPLPDGGVWVLTAGRLERRDAQTGRREGVLRPEGVSGPAAWTPEGGLLYVAGRELVELDKTGQEVGRTALP”, the protein production was “failed”. With “MKLRSWEFYDRIARAYDSMYETPKWKLYHRLIGSFLEEYLKNPCRVLDLGGGTGKWSLFLQERGFEVVLVDPSKEMLEVAREKGVKNVVEAKAEDLPFPSGAFEAVLALGDVLSYVENKDKAFSEIRRVLVPDGLLIATVDNFYTFLQQMIEKDAWDQITRFLKTQTTSVGTTLFSFNSYAFKPEDLDSLEGFETVDIRGIGVMEYPDERISEREETIFRLEQELSRDRNIIWKADHIFFVLKKKRGA” the protein production was “not failed”. In the case of “MKLSQQSQAIIESAIQKAINKYTCGCEQTIVTDIHIQPNQNSGELFIYDDEDEELSSVTIDEWTAYEGDDFCEDAERIFRTVLCRMKENGSFDKLTILKPYSFVLVDEDKETISELLLVDDDTLLVNDELLKGLDKELDDFLKDLLEKLEHHHHHH”, the protein production is reported as “not failed”. With “MKLVICIVQDDDAGELIDVLTDKGLRVTKLATTGGFLKAGNTTLMIGVEEKAVDGVIETIEDVCKTRQQVVTSPSPVAGSTGVYVPYPIDVEVGGATIFVVDVDKFIKI” the protein production was “failed”. In the case of “MKMEELFKKHKIVAVLRANSVEEAKEKALAVFEGGVHLIEITFTVPDADTVIKELSFLKEKGAIIGAGTVTSVEQCRKAVESGAEFIVSPHLDEEISQFCKEKGVFYMPGVMTPTELVKAMKLGHTILKLFPGEVVGPQFVKAMKGPFPNVKFVPTGGVNLDNVCEWFKAGVLAVGVGSALVKGTPDEVREKAKAFVEKIRGCTE”, the protein production is reported as “not failed”. With “MKMGMVFVFVLLTVFMAVMSSTRVSAQSNCKNELKKSLKPCFSYLTSSYPSLPDDSDCCPSLLDISKTSVDCFCQYLNSGGSILDINANFIQARRLPEICGVDPYLASVCNEGKNFLTSIYEETPIL” the protein production was “failed”. In the case of “MKMKHAFGPIILACVLFFIIILIPSKSLVSLISDKKVEDAATSLQKEKLQSVFLQQKMLENSQYLPMYGSSEFLRMDAYHPSNYFKVNPAGFTPFLIGTGGTQSLAHILNMTSTMDELEGKKVVFVLSPQWFTKTGVSQGDFTNNFSKQQAYHFIFNDKINPEMKKQIAKRLLDYKVVQEDDILKNSLEGIVYNDSKHNIKAGLVKPLAYMHRNILDHRDLFNSLFKIEPMKEKTNIGLRSISWEDARKHAEQEGKAESTTNTFGIENPYYHKNNLKKKLKGLKNFRANETYDESPEYDDLQIILELFKEKNVKPLFISVPVNGPWYDYTGFPKERREVYYKKVREQVEKAGYPVIDFSGHEYDKYFLKDTIHLGWKGWIYFDEAVQKFYSEKLEHHHHHH”, the protein production is reported as “not failed”.
